The labels stand for the following.
T1: SEZ6 N1 (amino acids 1-70) on yeast (human, UniProt Q53EL9 20-89)
T1 construct: yeast display
T1 sequence: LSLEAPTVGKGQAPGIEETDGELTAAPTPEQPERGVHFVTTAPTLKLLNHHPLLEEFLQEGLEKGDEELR

B1: SC17.114 (antibody, V domains shown)
VH: EVQLQQSGPEMVKPGASVKISCKASGYTFTDYYMHWVKQSHGKSLEWIGRVNTNNGGTSYDQKFEGKATLTVDKSSSTAYMELNSLTSEDSAVYYCVIPAWFAYWGQGTLVTVSA
VL: DVVMTQSPLSLPVSLGDQASISCRSSQSLVHSNGNTYLHWYLQKPGQSPKLLIYKVSSRFSGVPDRFSGSGSGTDFTLKISRVEAEDLGVYFCSQSTHVPFTFGSGTKLEIK
notes: murine mAb
B2: SC17.151 (antibody, V domains shown)
VH: EVQLQQSGTVLARPGASVKMSCKASGYTFTSYWMHWVKQRPGQGLEWIGAIYPGKNDTTYNQKFKGKAKLTAVTSASTLYMELSSLTNEDSAVYYCTRSGKGYFAYWGQGTLVTVSA
VL: DIVLTQFPASLAVSLGQRATIPCRASESVDSYGNSFMHWFQQKPGQPPKLLIYRASNLESEIPARFSGSGSGTDFTLTINPVEADDVATYYCQQSHEDPYTFGGGTKMEIK
notes: murine mAb
B3: SC17.199 (antibody, V domains shown)
VH: EVQLQQSGTVLARPGASVRMSCKASGYTFTSYWMHWVKQRPGQGLEWIGAIYPGNSDTSYNHKFKGKAKLTAVTSASTAYMELSSLTNEDSAVYYCTRSGTGWFAYWGQGTLVTVS
VL: B2 VL with F7S, P22S, F40Y, L50P, E61G, G72R, H96N, M108L
notes: murine mAb
B4: SC17.120 (antibody, V domains shown)
VH: EVQLEQSGTVLARPGASVKMSCKASGYTFTSYWMHWVKQRPGQGLEWIGAFYPGNSGTYYNQKFKDKAKLTAVTSASTAYMELSSLTNEDSAVYYCSRSGSGRFAYWGQGTLVTVSA
VL: B2 VL with F7S, P22S, F40Y, L50V, E61G, G72R, A84D, D85E, H96N, M108L
notes: murine mAb
B5: SC17.9 (antibody, V domains shown)
VH: QVQLQQPGAEIVRPGASVKLSCKASGYTFTDYWMNWVKQRPGQGLEWIGAIDPSDSYTSYNPKFKGKATLTVDTSSSSAYMQLSSLTSEDSAVYFCARRGTPGKPLVYWGQGTLVTVSA
VL: DIVMSQSPSSLAVSVGEKVTMSCKSSQSLLYSSNQKNYLAWYQQKPGQSPKLLIYWASTRESGVPDRFTGSGSGTDFTLTISSVKAEDLAVYFCQQYYNYPYTFGGGTKLK
notes: murine mAb
B6: SC17.56 (antibody, V domains shown)
VL: DIVMSQSPSSLAVSVGEKVTMSCKSSQSLLYSSNQKNYLAWYQQKPGQSPKLLIYWASTRESGVPDRFTGSGSGTDFTLTISSVKAEDLAVYFCQQYYNYPYTFGGGTKLEIK
V domain: QIQLVQSGPELKKPGETVKISCKASGYTFTNYGMNWVKQAPGKGLKWMAWINTYTGEPTYADDFKGRFAFSLETSASTASLQIINLKNEDTATYFCARIGDSSPSDYWGQGTTLTV
notes: murine mAb
B7: SC17.81 (antibody, V domains shown)
VH: EVQLQQSGAELVKPGASVKLSCTASGFNINDTYYHWLKQRPEQGLEWIGRIDPANVNTKYDPKFQGKATLTADTSSNTAYLQLSSLTSEDTAVYYCGRGNAYWGQGTLVTVSA
VL: B6 VL with A12T, M21L, S33T, N37I, T80A, S83N, F93Y, N99S
notes: murine mAb
B8: SC17.121 (antibody, V domains shown)
VH: EVQLQQSGPELMKPGASVKMSCKASGYTFTDHNIHWVKQHQGKSLEWIGEINPNTGGTGYNQKFQGKATMTVDKSSSTAYMELRSLTSEDSAVYYCVRGLYFFDYWGQGTTLTVSS
VL: QIVLTQSPAIMSASPGEKVTMTCSASSSVSYMHWYQQKSGTSPKRWIYDTSKLASGVPARFSGSGSGTSYSLTISSMETEDAATYYCQQWSNTPPTFGSVTKLEIK
notes: murine mAb
B9: SC17.102 (antibody, V domains shown)
VH: EVQLQQSGPELMKPGASVKMSCKASGDTFTDYNIHWVKQNQGKSLEWIGEVNPNIGGIGYNQKFKGKATLTVDKSSSTAYMELRSLTSEDSAVYYCAMGRWYFDVWGAGTTVTVSS
VL: B8 VL with A59P, S64R, T79A, Q89H, N92S, T93N, S99A, V100G, I105M
notes: murine mAb
B10: SC17.191 (antibody, V domains shown)
VH: EVQLQQSGPELMKPGASVKMSCKASGYTFTDYNMHWVKQNQGKSLEWIGEINPNTGGTGYNQKFKDKATLTVDKSSSTAYMELRSLTSEDSAVYYCARIPSLRRYYFDYWGQGTTLTVSS
VL: B8 VL with S62T, T79A, N92S, T93S, S99A, V100G, I105L
notes: murine mAb
B11: SC17.193 (antibody, V domains shown)
VH: QVTLKESGPGILQPSQTLSLTCSFSGFSLITYGIGVGWIRQPSGKGLEWLAHIWWNDNKYYNTALKSRLTISKDTSNNQVFLKIANVDTADTATYYCARMVYYDYDGGFAYWGQGTLVTVSA
VL: DLVLTQSPASLAVSLGQRATISCRASESVSTSGYSYMHWYQQKPGQPPKLLIYLASNLESGVPARFSGSGSGTDFTLNIHPVEEEDATTYYCQHSRELPYTFGGGTKLEIK
notes: murine mAb
B12: SC17.156 (antibody, V domains shown)
VH: QVTLKESGPGILQPSQTLSLTCSFSGFSLSTSGMGVSWIRKTSGKGLEWLAHIFWDDDKWYNPSLKSRLTISKATSSNQVFLILTSVDTADTATYYCATFYGLYFAYWGQGTTLTVSS
VL: B1 VL with L29I, H39E, S58N, F92Y, S94F, S96G, T97S, F101P, S105G
notes: murine mAb
B13: SC17.93 (antibody, V domains shown)
VH: QVQLQQPGAELVKPGASVMLSCKASGYTFTSYWVHWVKQRPGQGLEWIGVINPRNGRNNYNEKFKTKATLTVDKSSSTAYMQLSSPTSEDSAVYYCAREDYDGGDYAMDYWGQGTSVTVSS
VL: B6 VL with S22T, T69I, V91I, F93Y, N99R, Y102L, G106A, I112L
notes: murine mAb

Where a chain is given by its changes, count along the chain named.

The first experiment deals with T1, SEZ6 N1 (amino acids 1-70) on yeast. The experiment in a line: yeast display, flow cytometry. (A flow cytometer gives signals particle by particle.)
Regarding B1, the binding result was “binds”.
Still for that read-out and setting: the result for B2 reads “binds”; that for B3, “binds”; that for B4, “binds”.
For the molecule B5, the binding result is “binds”.
Turning to B6, the binding result is listed as “binds”.
Consider B7, for which the binding result is “binds”.

The next experiment addresses T2, SEZ6 Sushi Domain 4 (amino acids 750-813) on yeast (human, UniProt Q53EL9 769-832).
T2 construct: yeast display
Kind of experiment: yeast display, flow cytometry.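 Also: antibody binding to individual SEZ6 domains displayed on yeast, measured by flow cytometry, antibody at 50 nM purified or hybridoma supernatant diluted 1:2, 90 min on ice.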
On to B8, for which the binding result is reported as “binds”.
On to B9, for which the binding result was “binds”.
Consider B10, for which the binding result was “binds”.
On to B11, for which the binding result is “binds”.
The same measure, in the same setting: the result for B12 reads “binds”; that for B13, “binds”.

(Values after patent US20190022241A1 (AbbVie / Abbott, published 2019).)
